T1: IL10Rα and IL2Rγ on human primary cells (CD8 T cells, CD4 T cells, monocytes) (human) (UniProt Q13651)
T1 sequence (looked up) 1: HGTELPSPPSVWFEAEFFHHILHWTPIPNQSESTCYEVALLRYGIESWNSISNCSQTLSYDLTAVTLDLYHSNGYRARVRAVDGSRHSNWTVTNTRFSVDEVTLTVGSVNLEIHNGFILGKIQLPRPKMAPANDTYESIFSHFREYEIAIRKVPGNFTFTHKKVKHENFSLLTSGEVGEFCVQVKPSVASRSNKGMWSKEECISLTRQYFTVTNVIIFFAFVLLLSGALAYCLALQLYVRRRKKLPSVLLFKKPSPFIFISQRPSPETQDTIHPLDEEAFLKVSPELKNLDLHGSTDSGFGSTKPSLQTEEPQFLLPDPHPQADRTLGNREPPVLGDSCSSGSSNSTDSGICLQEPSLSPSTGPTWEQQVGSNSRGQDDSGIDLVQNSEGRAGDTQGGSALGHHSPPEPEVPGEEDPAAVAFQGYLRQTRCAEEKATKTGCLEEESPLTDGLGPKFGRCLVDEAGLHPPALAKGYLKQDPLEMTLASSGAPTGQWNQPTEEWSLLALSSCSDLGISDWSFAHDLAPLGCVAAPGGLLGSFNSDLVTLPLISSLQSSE
T1 sequence (looked up) 2: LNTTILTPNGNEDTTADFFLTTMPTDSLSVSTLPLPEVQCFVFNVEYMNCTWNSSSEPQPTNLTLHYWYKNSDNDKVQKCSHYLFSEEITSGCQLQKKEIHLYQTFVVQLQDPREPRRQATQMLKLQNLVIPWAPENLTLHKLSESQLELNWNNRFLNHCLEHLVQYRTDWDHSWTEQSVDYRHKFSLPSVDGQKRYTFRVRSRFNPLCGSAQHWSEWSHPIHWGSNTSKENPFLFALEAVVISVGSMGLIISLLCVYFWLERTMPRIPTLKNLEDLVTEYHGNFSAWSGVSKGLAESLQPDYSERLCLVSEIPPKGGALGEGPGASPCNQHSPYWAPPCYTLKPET


target: T1, IL10Rα and IL2Rγ on human primary cells (CD8 T cells, CD4 T cells, monocytes) (human); test: cell-based or functional assay

pSTAT3 (MFI) in CD4 T cells at 0.0001 µM	pSTAT3 (MFI) in CD4 T cells at 0.0013 µM	pSTAT3 (MFI) in CD4 T cells at 0.01 µM	pSTAT3 (MFI) in CD4 T cells at 0.1 µM	pSTAT3 (MFI) in CD4 T cells at 1 µM	pSTAT3 (MFI) in CD4 T cells at 10 µM	pSTAT3 (MFI) in CD4 T cells at 100 µM	pSTAT3 (MFI) in CD8 T cells at 0.0001 µM	pSTAT3 (MFI) in CD8 T cells at 0.001 µM	pSTAT3 (MFI) in CD8 T cells at 0.01 µM	Binder
10700 MFI	12000 MFI	9550 MFI	11300 MFI	12700 MFI	13200 MFI	11600 MFI	7060 MFI	7520 MFI	6330 MFI	hIL10Ra_VHH14-hIL2Rg_VHH19, linker GGGSGGGS, tag his (bispecific antibody, not shown: small tags and cut ends) QVQLQESGGGSVQAGGSLRLSCGASGYTYSSYCMGWFRQVPGKEREGVAVIDSDGSTSYADSVKGRFTISKDNGKNTLYLQMNSLKPEDTAMYYCAADLGHYRPPCGVLYLGMDYWGKGTQVTVSSGGGSGGGSQVQLQESGGGSVQAGGSLRLSCTASGFTFDDREMNWYRQAPGNECELVSTISSDGSTYYADSVKGRFTISQDNAKNTVYLQMDSVKPEDTAVYYCAADFMIAIQAPGAGCWGQGTQVTVSS
12800 MFI	–	11100 MFI	10200 MFI	9970 MFI	11400 MFI	10300 MFI	7840 MFI	7520 MFI	6920 MFI	hIL10Ra_VHH14-hIL2Rg_VHH19, linker …, tag his (bispecific antibody, not shown: small tags and cut ends) QVQLQESGGGSVQAGGSLRLSCGASGYTYSSYCMGWFRQVPGKEREGVAVIDSDGSTSYADSVKGRFTISKDNGKNTLYLQMNSLKPEDTAMYYCAADLGHYRPPCGVLYLGMDYWGKGTQVTVSSGGSGGSGGSGQVQLQESGGGSVQAGGSLRLSCTASGFTFDDREMNWYRQAPGNECELVSTISSDGSTYYADSVKGRFTISQDNAKNTVYLQMDSVKPEDTAVYYCAADFMIAIQAPGAGCWGQGTQVTVSS
12200 MFI	–	12500 MFI	11000 MFI	12100 MFI	11800 MFI	9040 MFI	7380 MFI	7740 MFI	7800 MFI	hIL10Ra_VHH14-hIL2Rg_VHH19, no linker, tag his (bispecific antibody, not shown: small tags and cut ends) QVQLQESGGGSVQAGGSLRLSCGASGYTYSSYCMGWFRQVPGKEREGVAVIDSDGSTSYADSVKGRFTISKDNGKNTLYLQMNSLKPEDTAMYYCAADLGHYRPPCGVLYLGMDYWGKGTQVTVSSQVQLQESGGGSVQAGGSLRLSCTASGFTFDDREMNWYRQAPGNECELVSTISSDGSTYYADSVKGRFTISQDNAKNTVYLQMDSVKPEDTAVYYCAADFMIAIQAPGAGCWGQGTQVTVSS

same assay, conditions: not given

pSTAT3 (MFI) in CD8 T cells at 0.1 µM	pSTAT3 (MFI) in CD8 T cells at 1 µM	pSTAT3 (MFI) in CD8 T cells at 10 µM	pSTAT3 (MFI) in CD8 T cells at 100 µM	pSTAT3 (MFI) in monocytes at 0.0001 µM	pSTAT3 (MFI) in monocytes at 0.001 µM	pSTAT3 (MFI) in monocytes at 0.01 µM	pSTAT3 (MFI) in monocytes at 0.1 µM	pSTAT3 (MFI) in monocytes at 1 µM	pSTAT3 (MFI) in monocytes at 10 µM	Binder
7070 MFI	7870 MFI	8430 MFI	7970 MFI	4670 MFI	4820 MFI	4360 MFI	4420 MFI	4760 MFI	4880 MFI	hIL10Ra_VHH14-hIL2Rg_VHH19, linker GGGSGGGS, tag his (bispecific antibody, not shown: small tags and cut ends) QVQLQESGGGSVQAGGSLRLSCGASGYTYSSYCMGWFRQVPGKEREGVAVIDSDGSTSYADSVKGRFTISKDNGKNTLYLQMNSLKPEDTAMYYCAADLGHYRPPCGVLYLGMDYWGKGTQVTVSSGGGSGGGSQVQLQESGGGSVQAGGSLRLSCTASGFTFDDREMNWYRQAPGNECELVSTISSDGSTYYADSVKGRFTISQDNAKNTVYLQMDSVKPEDTAVYYCAADFMIAIQAPGAGCWGQGTQVTVSS
6780 MFI	6480 MFI	7330 MFI	6930 MFI	4230 MFI	4710 MFI	4700 MFI	4690 MFI	4620 MFI	4550 MFI	hIL10Ra_VHH14-hIL2Rg_VHH19, linker …, tag his (bispecific antibody, not shown: small tags and cut ends) QVQLQESGGGSVQAGGSLRLSCGASGYTYSSYCMGWFRQVPGKEREGVAVIDSDGSTSYADSVKGRFTISKDNGKNTLYLQMNSLKPEDTAMYYCAADLGHYRPPCGVLYLGMDYWGKGTQVTVSSGGSGGSGGSGQVQLQESGGGSVQAGGSLRLSCTASGFTFDDREMNWYRQAPGNECELVSTISSDGSTYYADSVKGRFTISQDNAKNTVYLQMDSVKPEDTAVYYCAADFMIAIQAPGAGCWGQGTQVTVSS
6780 MFI	7720 MFI	7490 MFI	6200 MFI	3970 MFI	4600 MFI	4420 MFI	4420 MFI	4480 MFI	4330 MFI	hIL10Ra_VHH14-hIL2Rg_VHH19, no linker, tag his (bispecific antibody, not shown: small tags and cut ends) QVQLQESGGGSVQAGGSLRLSCGASGYTYSSYCMGWFRQVPGKEREGVAVIDSDGSTSYADSVKGRFTISKDNGKNTLYLQMNSLKPEDTAMYYCAADLGHYRPPCGVLYLGMDYWGKGTQVTVSSQVQLQESGGGSVQAGGSLRLSCTASGFTFDDREMNWYRQAPGNECELVSTISSDGSTYYADSVKGRFTISQDNAKNTVYLQMDSVKPEDTAVYYCAADFMIAIQAPGAGCWGQGTQVTVSS

same assay, conditions: not given

pSTAT3 (MFI) in monocytes at 100 µM	pSTAT3 (MFI) in CD4 T cells at 0.001 µM	Binder
4620 MFI	–	hIL10Ra_VHH14-hIL2Rg_VHH19, linker GGGSGGGS, tag his (bispecific antibody, not shown: small tags and cut ends) QVQLQESGGGSVQAGGSLRLSCGASGYTYSSYCMGWFRQVPGKEREGVAVIDSDGSTSYADSVKGRFTISKDNGKNTLYLQMNSLKPEDTAMYYCAADLGHYRPPCGVLYLGMDYWGKGTQVTVSSGGGSGGGSQVQLQESGGGSVQAGGSLRLSCTASGFTFDDREMNWYRQAPGNECELVSTISSDGSTYYADSVKGRFTISQDNAKNTVYLQMDSVKPEDTAVYYCAADFMIAIQAPGAGCWGQGTQVTVSS
4860 MFI	11800 MFI	hIL10Ra_VHH14-hIL2Rg_VHH19, linker …, tag his (bispecific antibody, not shown: small tags and cut ends) QVQLQESGGGSVQAGGSLRLSCGASGYTYSSYCMGWFRQVPGKEREGVAVIDSDGSTSYADSVKGRFTISKDNGKNTLYLQMNSLKPEDTAMYYCAADLGHYRPPCGVLYLGMDYWGKGTQVTVSSGGSGGSGGSGQVQLQESGGGSVQAGGSLRLSCTASGFTFDDREMNWYRQAPGNECELVSTISSDGSTYYADSVKGRFTISQDNAKNTVYLQMDSVKPEDTAVYYCAADFMIAIQAPGAGCWGQGTQVTVSS
4140 MFI	12900 MFI	hIL10Ra_VHH14-hIL2Rg_VHH19, no linker, tag his (bispecific antibody, not shown: small tags and cut ends) QVQLQESGGGSVQAGGSLRLSCGASGYTYSSYCMGWFRQVPGKEREGVAVIDSDGSTSYADSVKGRFTISKDNGKNTLYLQMNSLKPEDTAMYYCAADLGHYRPPCGVLYLGMDYWGKGTQVTVSSQVQLQESGGGSVQAGGSLRLSCTASGFTFDDREMNWYRQAPGNECELVSTISSDGSTYYADSVKGRFTISQDNAKNTVYLQMDSVKPEDTAVYYCAADFMIAIQAPGAGCWGQGTQVTVSS

Source: patent publication US20250163162A1
